Results taken from patent EP0980526B1, “INHIBITORS OF NUCLEAR PROTEIN/NUCLEAR RECEPTOR INTERACTION” (IMPERIAL CANCER RESEARCH TECHNOLOGY LIMITED, priority 1997, dated 1998).

Experiments:
[1] = molecular target: AAD-ER (acidic activation domain fused to the LBD of the wild-type ER) (human) (UniProt P03372); assay: cell-based or functional assay
[2] = molecular target: AAD-ER (acidic activation domain fused to the LBD of the wild-type ER) (human) (UniProt P03372); assay: yeast two-hybrid
[3] = molecular target: mouse ER (expressed in transfected Hela cells) (mouse) (UniProt P19785); assay: cell-based or functional assay
Sequence of mouse ER (expressed in transfected Hela cells) (mouse) (P19785 whole entry): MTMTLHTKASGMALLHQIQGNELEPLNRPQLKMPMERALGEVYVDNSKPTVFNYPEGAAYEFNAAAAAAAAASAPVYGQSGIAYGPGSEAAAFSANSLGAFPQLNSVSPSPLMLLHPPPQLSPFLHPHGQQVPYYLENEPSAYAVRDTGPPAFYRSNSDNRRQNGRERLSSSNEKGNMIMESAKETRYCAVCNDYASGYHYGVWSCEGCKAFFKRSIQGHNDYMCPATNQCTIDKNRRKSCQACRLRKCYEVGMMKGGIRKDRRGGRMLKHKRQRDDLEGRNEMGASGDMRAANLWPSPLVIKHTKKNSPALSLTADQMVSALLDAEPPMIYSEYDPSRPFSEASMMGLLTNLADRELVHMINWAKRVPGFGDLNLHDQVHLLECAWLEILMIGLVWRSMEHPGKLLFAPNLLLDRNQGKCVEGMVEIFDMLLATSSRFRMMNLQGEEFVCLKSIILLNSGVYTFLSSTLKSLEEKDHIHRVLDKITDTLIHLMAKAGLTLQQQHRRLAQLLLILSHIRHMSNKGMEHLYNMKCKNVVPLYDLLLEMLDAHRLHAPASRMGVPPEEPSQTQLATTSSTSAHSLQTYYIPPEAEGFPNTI

Sequence of AAD-ER (acidic activation domain fused to the LBD of the wild-type ER) (human) (P03372 282-595 limits assumed): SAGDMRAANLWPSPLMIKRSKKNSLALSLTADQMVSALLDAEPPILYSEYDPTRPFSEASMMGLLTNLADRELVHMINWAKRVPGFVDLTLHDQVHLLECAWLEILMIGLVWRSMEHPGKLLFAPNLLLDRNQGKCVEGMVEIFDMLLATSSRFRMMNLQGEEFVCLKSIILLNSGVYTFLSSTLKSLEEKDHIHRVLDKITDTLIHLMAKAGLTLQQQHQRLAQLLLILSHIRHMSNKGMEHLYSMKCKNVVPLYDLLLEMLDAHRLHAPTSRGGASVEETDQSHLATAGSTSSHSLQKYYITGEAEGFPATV
Sequence of DBD-SRC1a 45-53 (P03372 176-282, form in doubt): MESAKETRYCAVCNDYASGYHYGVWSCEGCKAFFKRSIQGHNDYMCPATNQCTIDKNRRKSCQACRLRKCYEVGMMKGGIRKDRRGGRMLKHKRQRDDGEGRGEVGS

Substance: DBD-RIP140 935-943 with valine 935 mutated to alanine (from UniProt P03372 176-282; P48552 935-943)
- reporter activity in the presence of ligand (β-galactosidase, yeast two hybrid) (fold reduction) [1]: 10

Substance: DBD-SRC1a 45-53 (from UniProt P03372 176-282)
- fold interaction (two-hybrid reporter) [2]: 6 fold

Substance: SRC1e M123 (from UniProt Q15788 1-1399)
- activity of ER on the reporter 2ERE-pS2-CAT in transiently transfected Hela cells [3]: < 50%
